Reference: PMC5454382 (Nature Communications, 2017)
Changes are numbered by the printed parent chain. Names and notes keep the numbering of the source. Each block holds one binder with its values, some of them ahead of it.

How the values were obtained:
His-tagged LDHA [1] = target: T1, His-tagged LDHA (human, UniProt P00338 1-332); test: pull-down; GST pull-down: GST-tagged protein on glutathione-sepharose resin incubated with His-tagged protein, 4 °C, 3 h; settings: both partners purified
His-tagged LDHA [2] = target: T1, His-tagged LDHA; test: pull-down; recombinant proteins from E. coli (Supplementary Fig. 3d,e); which partner was immobilised is not given; settings: both partners purified

binding result (His-tagged LDHA [1]): binds
B1: GST-tagged hCINAP (enzyme, human, UniProt Q9Y3D8 1-172, looked up)
chain: MLLPNILLTGTPGVGKTTLGKELASKSGLKYINVGDLAREEQLYDGYDEEYDCPILDEDRVVDELDNQMREGGVIVDYHGCDFFPERWFHIVFVLRTDTNVLYERLETRGYNEKKLTDNIQCEIFQVLYEEATASYKEEIVHQLPSNKPEELENNVDQILKWIEQWIKDHNS
notes: hCINAP (adenylate kinase 6, AK6), human cDNA, wild type; Vector pGEX4T1 is named in the plasmids section; also called GST-hCINAP; glutathione S-transferase-tagged hCINAP; source: E. coli BL21(DE3), purified

binding result (His-tagged LDHA [2]): binds
B2: GST-tagged hCINAP (H79G) (enzyme, human, UniProt Q9Y3D8 1-172, looked up)
chain: B1 chain with H79G
notes: hCINAP (adenylate kinase 6, AK6), human cDNA, H79G mutant with impaired adenylate kinase activity; also called H79G mutant hCINAP; source: E. coli BL21(DE3), purified
